Reference: patent EP1746106A2 (Biogen Idec MA Inc., dated 2007)
Blank lines part the entries; values can stand above or below the binder they belong to.

Assays:
[1] = target: T1, FLAG-tagged soluble muBAFF (murine, UniProt Q9WU72 127-309, limits assumed); assay: co-immunoprecipitation with protein A-Sepharose, anti-FLAG M2 Western blot
T1 construct: Anti-FLAG M2-purified, 500 ng used; not shown: FLAG tag

[2] = target: T2, N-terminus FLAG-tagged human full length TACI expressed on 293EBNA cells (pJST552) (human, UniProt O14836 1-293); assay: flow cytometry on 293EBNA cells transfected with FLAG-tagged full length human TACI; detection with rabbit anti-mAPRIL Rb1532 and anti-rabbit IgG-PE
T2 construct: also called FLAG-tagged full length human TACI; flag-tagged full length TACI; not shown: N-terminal FLAG tag
T2 sequence: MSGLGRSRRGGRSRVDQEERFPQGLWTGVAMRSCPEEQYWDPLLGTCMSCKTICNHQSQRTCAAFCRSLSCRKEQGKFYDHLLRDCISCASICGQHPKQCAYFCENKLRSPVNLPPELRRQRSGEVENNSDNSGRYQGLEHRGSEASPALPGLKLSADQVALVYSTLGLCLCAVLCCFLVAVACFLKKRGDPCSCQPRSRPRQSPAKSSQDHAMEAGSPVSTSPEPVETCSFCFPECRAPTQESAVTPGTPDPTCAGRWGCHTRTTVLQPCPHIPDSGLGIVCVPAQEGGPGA

T1 sequence (Q9WU72 127-309 limits assumed): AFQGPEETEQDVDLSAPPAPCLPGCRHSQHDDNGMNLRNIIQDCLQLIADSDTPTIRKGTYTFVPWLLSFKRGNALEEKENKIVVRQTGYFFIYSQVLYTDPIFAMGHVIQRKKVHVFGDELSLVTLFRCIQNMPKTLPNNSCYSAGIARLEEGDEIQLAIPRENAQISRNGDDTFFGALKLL

binding result [1]: no binding (tested: 500 ng)
B1: human TACI(1-160)-Ig fusion protein (Fc fusion)
chain: MSGLGRSRRGGRSRVDQEERFPQGLWTGVAMRSCPEEQYWDPLLGTCMSCKTICNHQSQRTCAAFCRSLSCRKEQGKFYDHLLRDCISCASICGQHPKQCAYFCENKLRSPVNLPPELRRQRSGEVENNSDNSGRYQGLEHRGSEASPALPGLKLSADQV
notes: Used as conditioned medium (Optimem) from transfected 293 cells; also called hTACI(1-160)-Ig; PS882 product; not shown: human IgG-Fc

binding result [2]: binds
B2: myc-tagged murine APRIL (ligand)
chain: EQKLISEEDLNGGGGSKELAVLTQKHKKKHSVLHLVPVNITSKDSDVTEVMWQPVLRRGRGLEAQGDIVRVWDTGIYLLYSQVLFHDVTFTMGQVVSREGQGRRETLFRCIRSMPSDPDRAYNSCYSAGVFHLHQGDIITVKIPRANAKLSLSPHGTFLGFVKL
modifications: Glycosylated (expressed in Pichia pastoris); the letters do not carry the glycans.
notes: Purified from P. pastoris supernate; also called myc-muAPRIL; Myc-Murine APRIL A88
